Test results as given in publication PMC6177440, “Overlapping motifs on the herpes viral proteins ICP27 and ORF57 mediate interactions with the mRNA export adaptors ALYREF and UIF” (Scientific Reports, 2018).

T1: KSHV ORF57 residues 153-455 (KSHV, UniProt Q2HR75 153-455)
T1 construct: ORF57 of Kaposi sarcoma herpes virus (KSHV), residues 153-455, in pET-21a; The strep-II-tag and HRV-3C site lay between thioredoxin and ORF57; also called ksORF57Δ153; ORF57Δ153; source: T7 express E. coli, purified (strep-tag resin, HRV-3C cleavage, size exclusion chromatography); not shown: thioredoxin, N-terminal, cleaved; strep-II, N-terminal, cleaved
T1 sequence: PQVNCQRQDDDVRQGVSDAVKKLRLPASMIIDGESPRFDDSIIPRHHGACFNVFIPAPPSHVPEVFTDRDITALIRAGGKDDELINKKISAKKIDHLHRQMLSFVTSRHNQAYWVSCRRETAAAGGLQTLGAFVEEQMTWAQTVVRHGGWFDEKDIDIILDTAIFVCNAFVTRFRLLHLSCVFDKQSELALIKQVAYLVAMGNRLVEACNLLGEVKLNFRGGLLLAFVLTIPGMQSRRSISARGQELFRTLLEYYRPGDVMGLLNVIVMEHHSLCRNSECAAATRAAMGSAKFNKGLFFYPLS

T2: UIF N-terminal region (residues 1-190), recombinant (human, UniProt Q96QD9 1-190)
T2 construct: UIF, homo sapiens, Uniprot Q96QD9, residues 1-190, in pET-15b; source: T7 express E. coli, purified (TALON resin, size exclusion chromatography)
T2 sequence (looked up): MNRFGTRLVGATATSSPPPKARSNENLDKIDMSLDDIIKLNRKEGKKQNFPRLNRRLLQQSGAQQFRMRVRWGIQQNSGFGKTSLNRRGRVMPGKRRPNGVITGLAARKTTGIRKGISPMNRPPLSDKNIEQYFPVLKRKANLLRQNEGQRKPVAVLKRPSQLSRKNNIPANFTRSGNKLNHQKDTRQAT

B1: REF2-I (murine variant of ALYREF) residues 1-155 (domain or fragment)
chain: not shown
notes: Used 15N labelled or unlabelled; source: purified
B2: HSV-1 ICP27 residues 103-155 (domain or fragment)
chain: SVWSRLGARRPSCSPEQHGGKVARLQPPPTKAQPARGGRRGRRRGRGRGGPGA
notes: ICP27 of HSV-1, residues 103-155; Used 15N labelled; also called ICP27^103–155; source: purified
B3: KSHV ORF57 residues 68-178 (domain or fragment)
chain: GRIPKKSQGRSQLRSEIQFCSPLSRPRSPSPVNRYGKKIKFGTAGQNTRPPPEKRPRRRPRDRLQYGRTTRGGQCRAAPKRATRRPQVNCQRQDDDVRQGVSDAVKKLRLP
notes: ORF57 of Kaposi sarcoma herpes virus (KSHV), residues 68-178, in pET-15b; Used 15N labelled or unlabelled; also called ksORF57^68–178

Assays:
Settings in all cases: both partners purified
[1] = molecular target: T1, KSHV ORF57 residues 153-455; assay: NMR titration; 15N HSQC of the 15N labelled REF2-I construct (target) without and with unlabelled ICP27Δ241 or ksORF57Δ153 (binder); ca. 50 µM; NMR buffer with EDTA decreased to 0.1 mM, pH 6.2; 298 K
[2] = molecular target: B1; assay: NMR titration; 15N HSQC of the 15N labelled protein (target) without and with an equimolar amount of the unlabelled partner (binder); ca. 50 µM; 20 mM sodium phosphate, 50 mM NaCl, 50 mM L-Arg, 50 mM L-Glu, 1 mM EDTA, 2 mM TCEP, pH 6.2; 298 K
[3] = molecular target: T2, UIF N-terminal region (residues 1-190), …; assay: as above

Row | Binder | binding result [1] | binding result [2] | binding result [3]
1 | B1 | binds | – | –
2 | B2 | – | binds | binds
3 | B3 | – | binds | binds
